Reference: patent US20050196844

System: E. coli synthesized tau (352 residue isoform), non-phosphorylated

| Substance | in vitro kinase reaction, immunoblot with anti-PY18 and 4G10 |
| --- | --- |
| fyn tyrosine kinase (Upstate Biotechnologies) | fyn kinased tyr18 in vitro |
| src tyrosine kinase (Upstate Biotechnologies) | Identical results were observed for src. |
